Source: patent publication US20040058356A1, “Methods for global profiling gene regulatory element activity” (priority 2001, published 2004)

Assays:
PC12 cells [1] = test: EMSA with 32P-labeled transcription factor binding site oligonucleotides, PC12 nuclear extracts; format: cell-based, rat; settings: treated vs untreated PC12 cells
Experimental: Confirmation of the increase in the transcription factor AP-1 binding activity was performed by electrophoretic mobility shift assay (EMSA). Nuclear extracts obtained from PC cells either treated with NGF-beta or untreated were combined in separate binding reactions. Each reaction also contained a ^32P-labeled oligonucleotide comprising a binding site for a specific transcription factor. […] In contrast, when the oligonucleotide was specific for the OCT1 binding site (lanes 7 and 8), no increase in gel-shifted material was observed.

PC12 cells [2] = test: Global regulatory element activity profiling with PC12 nuclear extracts; format: cell-based, rat; settings: treated vs untreated PC12 cells, FIG. 3
Experimental: Rat pheochromocytoma (PC) cells (cell line PC12; ATCC Number CRL-1721) were grown in high glucose Dulbecco's Modified Eagle Medium (DMEM) in the presence of 10% horse serum, and then transferred to serum-free DMEM plus N2 supplement (Invitrogen) containing 200 ng/ml Nerve Growth Factor-beta (NGF-beta; Sigma). After a 5 hour exposure, the cells were removed from the dishes, washed with PBS, and collected by centrifugation for regulatory element activity profiling.
Global regulatory element activity profiling was carried out using nuclear extracts from cells that were either untreated or treated with NGF-beta. Known transcription factor binding sites present in the DNA sequences were counted as described for Jurkat cells. Bars indicate the percentage of DNA fragments containing selected cis sites that were isolated in binding reactions containing nuclear extracts from either untreated (white bars) or NGFbeta-treated (black bars) PC12 cells. It can be seen that NGF treatment led to an increase in binding activity for AP 1, ATF and TCF11 (among others), while other activities, for example, E2F and RFX1, were reduced after NGF treatment.

B1: Nerve Growth Factor-beta (protein, UniProt P01139 122-241, looked up)
Beta-nerve growth factor: SSTHPVFHMGEFSVCDSVSVWVGDKTTATDIKGKEVTVLAEVNINNSVFRQYFFETKCRASNPVESGCRGIDSKHWNSYCTTTHTFVKALTTDEKQAAWRFIRIDTACVCVLSRKATRRG
modifications: Beta-nerve growth factor
notes: Nerve Growth Factor-beta (Sigma) used to treat PC12 cells
For B1, the “AP-1 binding site gel-shifted material (DNA-protein complexes)” value (PC12 cells [1]; FIG. 4 lanes 3 and 4) was “significant increase”, the “OCT1 binding site gel-shifted material” value (PC12 cells [1]; FIG. 4 lanes 7 and 8) was “no increase” and the “AP 1 binding activity” value (PC12 cells [2]) was “increase”. The ATF binding activity (PC12 cells [2]) was “increase”, the E2F binding activity (PC12 cells [2]) was “reduced” and the RFX1 binding activity (PC12 cells [2]) was “reduced”. For the same molecule, the TCF11 binding activity (PC12 cells [2]) was “increase”.
